± gives the standard deviation of the averaged measurements.
These sequences were tested on Saccharomyces cerevisiae (assay: protein stability index of tFT-peptide fusion (C-terminal peptide) (PSI (0-1 scale)); higher = more stable (slower turnover)). Settings: genetic background: wild type; temperature: 30 C.
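Also: PSI is a weighted mean of sequencing reads over stability bins, variants kept only with over 10 reads, mCherry proximal and sfGFP distal, peptide attached via GGGS linker.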

Sequence | protein stability index
SLEWVGGRRWPI | 0.731 ± 0.014
SLFSLLVLPPPS | 0.706 ± 0.035
SLGCIPLVDFLR | 0.668 ± 0.0072
SLGFRSLGFDRV | 0.7195 ± 0.0024
SLGPPSLSARTN | 0.626 ± 0.045
SLICPPFWPPSF | 0.691 ± 0.044
SLILRKDKKKKK | 0.69 ± 0.01
SLIRSHKLKLFP | 0.732 ± 0.045
SLLDPLLPLLLF | 0.634 ± 0.017
SLLLALPSLPLS | 0.553 ± 0.18
SLLPILFPPPPF | 0.7147 ± 0.0046
SLLSCDETEFSS | 0.614 ± 0.051
SLLSLSPACLPL | 0.683 ± 0.026
SLLTSGSLTLFV | 0.71 ± 0.037
SLLVSRVVFRGN | 0.769 ± 0.12
SLPASTEPNVGT | 0.696 ± 0.034
SLPFFPPRSPPS | 0.725 ± 0.11
SLPFLPPSAPLP | 0.76 ± 0.014
SLPLLPHLPASP | 0.698 ± 0.17
SLPLPPLPYSRT | 0.732 ± 0.083
SLPLPPPVRPLL | 0.689 ± 0.047
SLPPLPSPPCPP | 0.712 ± 0.044
SLPPPLPPPAPP | 0.614 ± 0.04

Sequence | protein stability index
SLPPPPAPPPAI | 0.706 ± 0.086
SLPPPPARAAIL | 0.668 ± 0.07
SLPPPSPLPPPV | 0.558 ± 0.018
SLPRLRSCPSSF | 0.774 ± 0.18
SLPRPASYPPRF | 0.652 ± 0.079
SLPSHPLPDPSR | 0.67 ± 0.018
SLPYPFSLLPSL | 0.739 ± 0.03
SLRGIVFQSPSP | 0.737 ± 0.025
SLRNSFPPLSSP | 0.651 ± 0.07
SLRTREGSSRRE | 0.674 ± 0.23
SLSLHALPRPTT | 0.655 ± 0.029
SLSLPSSVIVGS | 0.624 ± 0.089
SLSLVSLSPSFS | 0.694 ± 0.0096
SLSLYSSTSLLP | 0.694 ± 0.064
SLSRLVGPLVSS | 0.611 ± 0.0066
SLSVMSAPLVGI | 0.636 ± 0.056
SLSVPYPPGLLP | 0.7119 ± 0.0022
SLSWIGLYCCGL | 0.717 ± 0.051
SLTGYAGESIRF | 0.774 ± 0.056
SLVGFLPLWPSS | 0.64 ± 0.0085
SLVNDLFFLFFY | 0.523 ± 0.069
SLVTGRGFKVYR | 0.681 ± 0.05
SLVWVVSDLGCG | 0.778 ± 0.11

Sequence | protein stability index
SLYQPLSPTPPE | 0.74 ± 0.064
SMCASRMPVCFS | 0.767 ± 0.18
SMGSGCTPSMVS | 0.654 ± 0.11
SMNCTSLRPGSF | 0.7065 ± 0.0015
SMSPAGARCLPR | 0.782 ± 0.05
SNAGRRRTNRIP | 0.682 ± 0.03
SNAIPGSHLCRS | 0.719 ± 0.093
SNFCIWRWWLGF | 0.6858 ± 0.0014
SNFKKRKERFGR | 0.7048 ± 0.0063
SNGFYVSRPIVY | 0.769 ± 0.017
SNGGCIMSNIYS | 0.758 ± 0.059
SNHPPLSFHTGR | 0.734 ± 0.0084
SNKATNEGNVNV | 0.68 ± 0.025
SNPKLPYSGTLE | 0.6685 ± 0.0015
SNVHDEVLWTRA | 0.704 ± 0.011
SPADALPLPGCG | 0.707 ± 0.05
SPAFPPPPGFPP | 0.69 ± 0.04
SPAKRLFRFPSS | 0.729 ± 0.05
SPALLAPPFSPS | 0.68455 ± 0.00067
SPAPSFLPLTPS | 0.656 ± 0.014
SPARLPPLPSLS | 0.734 ± 0.038
SPASPLDPSSSS | 0.712 ± 0.037
SPFLINTIFDIT | 0.606 ± 0.038

Sequence | protein stability index
SPGLLPPPTSAF | 0.71 ± 0.017
SPGPPLPSLTLP | 0.738 ± 0.065
SPGPVTPRPSLR | 0.669 ± 0.019
SPGSPLSPPAPP | 0.62 ± 0.04
SPHPRKTTSHPR | 0.6642 ± 0.0015
SPHTRPDPPPLP | 0.681 ± 0.071
SPKCIVASFVVS | 0.675 ± 0.028
SPLALATPLSDP | 0.699 ± 0.039
SPLASAVPFLIV | 0.633 ± 0.045
SPLPPPPPSSSS | 0.661 ± 0.016
SPLPPPPSRPPR | 0.794 ± 0.032
SPLPPTPPPISP | 0.6721 ± 0.00083
SPLYCGLSLPSV | 0.664 ± 0.027
SPNSCSVDYFAT | 0.61 ± 0.055
SPPESTFAFLRP | 0.706 ± 0.037
SPPFLLPFFPTP | 0.68 ± 0.043
SPPHASPPVLPW | 0.72 ± 0.028
SPPHLPPPLLST | 0.645 ± 0.06
SPPLPPPVPTAP | 0.7095 ± 0.0056
SPPLPPVLSRSH | 0.741 ± 0.043
SPPLSPPLPSRP | 0.7016 ± 0.0064
SPPLSRSPPPTL | 0.674 ± 0.039
SPPPFLCSPFVA | 0.684 ± 0.024

Sequence | protein stability index
SPPPGHPPLVPN | 0.767 ± 0.013
SPPPHSARPPRP | 0.686 ± 0.012
SPPPLPTAPPPL | 0.713 ± 0.066
SPPPPLLPHPTP | 0.723 ± 0.047
SPPPPPPARCPS | 0.592 ± 0.045
SPPPPPPPHSPD | 0.654 ± 0.071
SPPPPPPSPPLH | 0.727 ± 0.044
SPPPPPTSPPPY | 0.638 ± 0.0091
SPPPPRPRPCAI | 0.753 ± 0.12
SPPRSCLPRPPD | 0.676 ± 0.05
SPPRSPPTFPPC | 0.704 ± 0.063
SPPSFIVPSTSL | 0.69 ± 0.054
SPPSPASPPSSP | 0.741 ± 0.075
SPPSPPPSPPTL | 0.77 ± 0.092
SPPSPSPSPRPL | 0.669 ± 0.03
SPPVPLSPPLSP | 0.537 ± 0.023
SPRIDFLLPCSS | 0.647 ± 0.032
SPRLPLSRPLVV | 0.574 ± 0.0064
SPRLPPPRPLPS | 0.676 ± 0.057
SPRPSPPPPSHA | 0.636 ± 0.077
SPRRVAVAGETS | 0.68 ± 0.093
SPSLPHAPSRPP | 0.607 ± 0.06
SPSNPSLRLSSP | 0.676 ± 0.023

Sequence | protein stability index
SPSPPPPPPPPL | 0.6877 ± 0.0022
SPSPPPRTPPPL | 0.689 ± 0.022
SPSSLPPTLPTL | 0.711 ± 0.021
SPTDSDINIPRV | 0.714 ± 0.05
SPTGTPIIPSYP | 0.684 ± 0.0098
SPTPPPTSPSRP | 0.728 ± 0.11
SPVSPPLVRPPY | 0.642 ± 0.054
SQFLRPSAVAPS | 0.642 ± 0.037
SQGLWRGVALTG | 0.7325 ± 0.0017
SQHTNTKTKLKK | 0.706 ± 0.043
SQKWKGSSVIIG | 0.723 ± 0.032
SQLGRPSLHPVR | 0.6601 ± 0.0024
SQRPPPLCDFTD | 0.723 ± 0.013
SQTRIKPREETA | 0.653 ± 0.031
SRAGAVLSGIES | 0.669 ± 0.013
SRDRRASPPLPP | 0.722 ± 0.049
SRDSRSSRRAGA | 0.702 ± 0.065
SRESTPDSHTMS | 0.726 ± 0.065
SRFHVLLPPPPS | 0.674 ± 0.035
SRFSRAVSVARV | 0.666 ± 0.023
SRGGGEGTVGKK | 0.697 ± 0.022
SRGGGWSEGGEG | 0.716 ± 0.028
SRGLPAPASRYC | 0.713 ± 0.015

Sequence | protein stability index
SRHPPPPVSPHP | 0.727 ± 0.064
SRHPSFPLPMPL | 0.746 ± 0.086
SRHRAVRAGENW | 0.708 ± 0.045
SRISSCSLVRPP | 0.679 ± 0.032
SRKNGLQRKQKT | 0.7277 ± 0.0055
SRLLLPIGISRV | 0.543 ± 0.16
SRLNRRKGNGRK | 0.656 ± 0.083
SRLSPSPLPPFL | 0.667 ± 0.023
SRNAFTLAARVY | 0.589 ± 0.016
SRPALLLGSEAT | 0.642 ± 0.031
SRPATGSVTFPP | 0.694 ± 0.0098
SRPPHPSPPRTF | 0.675 ± 0.03
SRPPSSQSNDEL | 0.66 ± 0.078
SRQPPPRVFCVV | 0.571 ± 0.035
SRRKMRILQIVD | 0.623 ± 0.092
SRRNRIYSHTSS | 0.666 ± 0.025
SRSGLSPTLPVF | 0.699 ± 0.016
SRSGPGEIVTTG | 0.688 ± 0.041
SRSPLCRCAPSF | 0.6534 ± 0.0043
SRSPPVLTRHKL | 0.824 ± 0.058
SRVVAGLWRGAV | 0.671 ± 0.18
SRWLLSLFTSSF | 0.762 ± 0.052

— the supplement of paper PMC10724198
